The chains are these.
T1: Human CD155 protein (Human CD155), expressed on cells (human, UniProt P15151 21-417)
T1 construct: also called CHO-K1-human CD155; CHO-K1-CD155
T1 sequence: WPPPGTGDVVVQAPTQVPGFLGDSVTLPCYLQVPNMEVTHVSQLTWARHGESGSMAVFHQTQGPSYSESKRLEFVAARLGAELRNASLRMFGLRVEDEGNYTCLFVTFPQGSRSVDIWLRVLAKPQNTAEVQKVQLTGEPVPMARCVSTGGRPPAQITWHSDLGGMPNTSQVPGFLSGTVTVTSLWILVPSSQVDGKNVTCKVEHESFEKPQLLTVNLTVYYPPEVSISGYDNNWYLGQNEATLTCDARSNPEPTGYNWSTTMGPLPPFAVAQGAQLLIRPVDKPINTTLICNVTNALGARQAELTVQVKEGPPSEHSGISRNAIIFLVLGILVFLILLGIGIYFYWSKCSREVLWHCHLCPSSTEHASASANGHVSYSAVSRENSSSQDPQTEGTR

B1: murine CD155 antibody (mutgi1005) (antibody, mouse IgG2a)
heavy: QVQMQQSGAELVKPGASVKLSCKTSGFTFSSSYISWLKQKPGQSLEWIAWIYAGTGDTNYNQKFTGKAQVTVDTSSSTAYMQFSSLTTEDSAIYYCVRHGSTGRGWYFAVWGAGTTVTVSSAKTTAPSVYPLAPVCGDTTGSSVTLGCLVKGYFPEPVTLTWNSGSLSSGVHTFPAVLQSDLYTLSSSVTVTSSTWPSQSITCNVAHPASSTKVDKKIEPRGPTIKPCPPCKCPAPNLLGGPSVFIFPPKIKDVLMISLSPIVTCVVVDVSEDDPDVQISWFVNNVEVHTAQTQTHREDYNSTLRVVSALPIQHQDWMSGKEFKCKVNNKDLPAPIERTISKPKGSVRAPQVYVLPPPEEEMTKKQVTLTCMVTDFMPEDIYVEWTNNGKTELNYKNTEPVLDSDGSYFMYSKLRVEKKNWVERNSYSCSVVHEGLHNHHTTKSFSRTPGK
light: QAVVTQESALTTSPGETVTLTCRSSTGAVTTSNYANWVQEKPDHLFTGLIGGTNNRAPGVPARFSGSLIGDKAALTITGAQTEDEAIYFCALWYSNHFVFGGGTKLTVLQPKSSPSVTLFPPSSEELETNKATLVCTITDFYPGVVTVDWKVDGTPVTQGMETTQPSKQSNNKYMASSYLTLTARAWERHSSYSCQVTHEGHTVEKSLSRADCS
notes: also called murine monoclonal antibody; murine antibody
B2: human-mouse chimeric antibody mutgi1005-hIgG4 (antibody)
heavy: not shown
light: QAVVTQESALTTSPGETVTLTCRSSTGAVTTSNYANWVQEKPDHLFTGLIGGTNNRAPGVPARFSGSLIGDKAALTITGAQTEDEAIYFCALWYSNHFVFGGGTKLTVLGQPKAAPSVTLFPPSSEELQANKATLVCLISDFYPGAVTVAWKADSSPVKAGVETTTPSKQSNNKYAASSYLSLTPEQWKSHRSYSCQVTHEGSTVEKTVAPTECS
notes: Murine variable regions fused with wild-type human IgG4 and lambda constant regions; also called mutgi1005-hlgG4; chimeric CD155 antibody
B3: human-mouse chimeric antibody mutgi1005-hIgG1 (antibody)
heavy: not shown
light: QAVVTQESALTTSPGETVTLTCRSSTGAVTTSNYANWVQEKPDHLFTGLIGGTNNRAPGVPARFSGSLIGDKAALTITGAQTEDEAIYFCALWYSNHFVFGGGTKLTVLGQPKAAPSVTLFPPSSEELQANKATLVCLISDFYPGAVTVAWKADSSPVKAGVETTTPSKQSNNKYAASSYLSLTPEQWKSHRSYSCQVTHEGSTVEKTVAPTECS
notes: Murine variable regions fused with wild-type human IgG1 and lambda constant regions; also called chimeric CD155 antibody
B4: affinity-matured humanized antibody V21 (tgi1005 V21-hIgG1/4) (antibody, V domains shown)
VH: QVQLVQSGAEVKKPGASVKVSCKASGYTFTSSYISWVRQAPGQGLEWIAWIYAGTGDTNYNQKFTGRVTMTTDTSTSTAYMELRSLRSDDTAVYYCARHGYTGRGWYFAVWGQGTTVTVSS
VL: QAVVTQEPSLTVSPGGTVTLTCRSSTGAVTTSNYANWVQQKPGQAFRGLIGGTNNRAPGVPARFSGSLLGDKAALTLSGAQPEDEAEYYCILWYSNHFVFGGGTKLTVL
B5: affinity-matured humanized antibody V40 (tgi1005 V40-hIgG1/4) (antibody, V domains shown)
VH: QVQLVQSGAEVKKPGASVKVSCKASGYTFTSSYISWVRQAPGQGLEWIAWIYAGTGDTNYNQKFTGRVTMTTDTSTSTAYMELRSLRSDDTAVYYCARHGMTGRGWYFAVWGQGTTVTVSS
VL: QAVVTQEPSLTVSPGGTVTLTCRSSTGAVTTSNLANWVQQKPGQAFRGLIGHTNNRAPGVPARFSGSLLGDKAALTLSGAQPEDEAEYYCILWYSNKFVFGGGTKLTVL
B6: affinity-matured humanized antibody V28 (tgi1005 V28-hIgG1/4/1LALA) (antibody, V domains shown)
VH: QVQLVQSGAEVKKPGASVKVSCKASGYTFTSSYISWVRQAPGQGLEWIAWIYAGTGDTNYNQKFTGRVTMTTDTSTSTAYMELRSLRSDDTAVYYCARHGLTGRHWYFAVWGQGTTVTVSS
VL: QAVVTQEPSLTVSPGGTVTLTCRSSTGAVTTSNIANWVQQKPGQAFRGLIGGTNNRGPGVPARFSGSLLGDKAALTLSGAQPEDEAEYYCILWYSNKFVFGGGTKLTVL
B7: affinity-matured humanized antibody V20 (tgi1005 V20-hIgG1/4/1LALA) (antibody, V domains shown)
VH: QVQLVQSGAEVKKPGASVKVSCKASGYTFTSSYISWVRQAPGQGLEWIAWIYAGTGDTNYNQKFTGRVTMTTDTSTSTAYMELRSLRSDDTAVYYCARHGYTGRGWYFAVWGQGTTVTVSS
VL: QAVVTQEPSLTVSPGGTVTLTCRSSTGAVTTSNLANWVQQKPGQAFRGLIGHTNNRAPGVPARFSGSLLGDKAALTLSGAQPEDEAEYYCALWYSNKFVFGGGTKLTVL

The target in this assay is T1, Human CD155 protein (Human CD155), …. Description: flow cytometry on CHO-K1-human CD155 cells. A general note: In flow cytometry, cells or beads pass a laser one at a time.
As for B1, the binding result is listed as “binds”.

In the case of B2, the binding result is on record as “binds”.

On to B3, for which the binding result was “binds”.

In the case of B4, the binding result is on record as “binds”.

Turning to B5, the binding result was “binds”.

Regarding B6, the binding result is listed as “binds”.

For the molecule B7, the binding result is reported as “binds”.
